Biological target: KAP1 (UniProt Q13263)
Experiment: GFP-Trap IP from nuclear lysate, coomassie gel
Conditions: reference: GFP-HP1β wild type; sites S89,S91

HP1β (from UniProt P83917) GFP-HP1β S89/91A
binding against the reference: weaker

Reference: PMC8287961
